Results reported in patent US20230365658A1.

Target: SARS-CoV-2 spike (S) glycoprotein, artificially-constructed BA.2.75+R346T (SARS-CoV-2), P0DTC2
Assay: cell-based or functional assay

B1: mAb_v2130Vanderbilt_184_20220114_00112 (antibody, V domains shown)
VH: EVQLVESGGGLVKPGGSLRLSCAASGFTFRDVWMSWVRQAPGKGLEWVGRIKSKIDGGTTDYAAPVKGRFTISRDDSKNTLYLQMNSLKTEDTAVYYCTTAGSYYYDTVGPELPEGKFDYWGQGTLVTVSS
VL: not shown
pseudoviral neutralization IC50: 0.674 µg/mL
